Measured values reported in patent publication US9951373B2, “Oplophorus-derived luciferases, novel coelenterazine substrates, and methods of use” (Promega Corporation, priority 2010, dated 2018).

Assays:
[1] = Thermal stability of OgLuc variants at 60° C.; assay type: physicochemical; conditions: luminescence at start of incubation (t=0), PBI-3939
Method: Aliquots were removed at different time-points and placed on dry ice to freeze the samples. […] Luminescence was measured on a GLOMAX® luminometer (Promega Corp.).
The thermal stability of the variants at 60° C. was examined as described above, except the assay buffer contained 100 mM MES pH 6.0 instead of HEPES.

[2] = Brightness of purified OgLuc variant compared to firefly luciferase; assay type: biochemical
Method: The 9B8 OgLuc variant was overexpressed and purified as described in Example 33. Reactions between diluted enzyme and substrate were performed using the following 2× buffer/assay reagent: 100 mM MES pH 6.0, 1 mM CDTA, 150 mM KCl, 35 mM thiourea, 2 mM DTT, 0.25% TERGITOL® NP-9 (v/v), 0.025% MAZU® DF 204, 10 mg/mL 2-hydroxy-β-cyclodextrin, and 20 μM PBI-3939. The final assay concentrations of purified enzyme and substrate were 0.5 pM and 10 μM, respectively. In parallel, reactions between diluted purified firefly luciferase (i.e., QUANTILUM® Recombinant Luciferase (Promega Corp.)) and luciferin were analyzed. The assay buffer/reagent for the firefly luciferase reaction was BRIGHT-GLO™, and the final assay concentrations were 0.5 pM enzyme and 500 μM luciferin. As the buffers/reagents for each reaction were known to provide “glow” kinetics, a 15 min time point was used to collect luminescence data.

[3] = system: cAMP response element (CRE); test: Transcriptional reporter, forward transfection, CRE in HEK293 cells; assay type: cell-based, human; conditions: 3 h; for baseline: 10 nM FSK
Method: HEK293 cells were plated at 15,000 cells/well in six 96-well tissue culture plates. Cells were grown in 100 μL of DMEM+10% FBS+1× non-essential amino acids (NEAA) and incubated overnight at 37° C. The cells were transiently transfected with either 10 ng or 100 ng plasmid DNA/well of pGL4.29 9B8 opt, pGL4.29 9B8 opt-P, or pGL4.29. Plasmid DNA was mixed with 850 μL of OPTI-MEMO (Invitrogen) and 32.4 μL of FUGENE® HD transfection reagent (Promega Corp.) and incubated at room temperature for 10 min. Eight μL of the transfection/reporter DNA mixture was added to the appropriate wells (2 constructs/plate). Cells were incubated for 4 hrs at 37° C. The medium was replaced with OPTI-MEM®+0.5% dialyzed FBS+1×NEAA+1× sodium pyruvate+1× Penn-Strep and incubated overnight at 37° C.
A lytic reagent containing 100 mM MES pH 6.1, 1 mM CDTA, 150 mM KCl, 35 mM thiourea, 2 mM DTT, 0.25% TERGITOLO NP-9 (v/v), 0.025% MAZUO DF 204, and 20 μM PBI-3939 was added to the cells containing pGL4.29 9B8 opt or pGL4.29 9B8 opt-P and allowed to incubated for 10 min at room temperature (100 μL lytic reagent added to 100 μL cells). ONE-GLO™ assay reagent (Promega Corp.) was added to cells containing pGL4.29 and used according to the manufacturer's protocol (100 μL reagent added to 100 μL cells). Luminescence was measured on a GLOMAX® Luminometer.

[4] = system: antioxidant response element (ARE); test: Transcriptional reporter, reverse transfection, ARE in HEK293 cells; assay type: cell-based, human; conditions: 100 ng DNA, 24 h
Method: HEK293 cells were trypsinized (T75 flask, 3 mL trypsin) and resuspended in […] (approximately 8.9×10^6 total cells) in medium containing DMEM+10% FBS+1×NEAA. Each transcriptional reporter was prepared for transfection by mixing 1.2 mL OPTI-MEM®, 12 μL transcription reporter DNA (100 ng) and 36 μL FUGENE® HD transfection reagent together and incubated at room temperature for 35 min. Following incubation, 624 μL of the transfection/reporter DNA mixture was added to 12 mL of cell suspension and mixed by inversion. After mixing, 100 μL of the cell/DNA mixture was added to wells of a 96-well plate (2 constructs/plate). The cells were incubated at 37° C. for 22 hrs. Tert-butylhydroquinone (a Nrf2 stabilizer; tBHQ; 1 μM (“baseline”) or 20 μM) or sulphoraphane, (an organosulfer antioxidant known to activate Nrf2; 1 μM (“baseline”) or 20 μM) in OPTI-MEM® was added to each well and incubated at 37° C. for 24 hrs. Cells were lysed with 100 μL lytic reagent as described above for the forward transfection. Luminescence was measured on a GLOMAX® Luminometer.

CRE [5] = test: Transcriptional reporter, bulk transfection, CRE in HEK293 cells; assay type: cell-based, human; conditions: HEK293, 10 nM FSK, 4 h
Method: (§1) The transcriptional reporter containing HRE and 9B8 opt-P was used in the bulk transfection of HeLa cells
(§2) HEK293, NIH3T3, or HeLa cells were plated to a single well of a 6-well tissue culture plate the day before transfection at a density of 4.5×10^5 cells/well in 3 mL complete medium (DMEM+10% FBS+1×NEAA+1× sodium pyruvate) for HEK293 cells, 3×10^5 cells/well in 3 mL complete medium (DMEM+10% fetal calf serum (FCS)+1×NEAA+1× sodium pyruvate) for NIH3T3 cells, or 9.9×10^5 cells/well in 3 mL complete medium (DMEM+10% FBS+1×NEAA) for HeLa cells. Cells were grown overnight at 37° C.
(§3) 3,300 ng of reporter plasmid DNA in 155 μL OPTI-MEM® was mixed with 9.9 μL FUGENE® HD transfection reagent, vortexed briefly, and incubated at room temperature for 10 min. The CRE transcriptional reporters were used to transfect HEK293 and NIH3T3 cells. The HRE transcriptional reporters were used to transfect HeLa cells. The reporter mixture was added to cells and mixed by gentle rocking followed by incubation at 37° C. for 6 hrs (HEK293 and NIH3T3) or 3 hrs (HeLa). […]
(§4) FSK (CRE stimulator) or 17-AAG (HRE stimulator; 17-Allylamino-demethoxy geldanamycin) in OPTI-MEM® was added to the cells (10 nM or 10 μM final concentration for FSK; 1 nM or 1 μM final concentration for 17-AAG) and incubated at 37° C. for 4 hrs (FSK) or 6 hrs (17-AAG). […] Luminescence was measured on a GLOMAX® Luminometer.

CRE [6] = test: Transcriptional reporter, bulk transfection, CRE in NIH3T3 cells; assay type: cell-based; conditions: NIH3T3, 10 nM FSK, 4 h
Method: as §1, §2, §3, §4

[7] = system: cAMP-response element (CRE); test: cAMP transcriptional reporter in HEK293 cells; conditions: for fold-induction: FSK 5 hrs
HEK293 cells = test: Luminescence of luciferases in lysed HEK293 cells (codon optimization); assay type: cell-based, human; conditions: normalized
Method: Codon optimized versions of IV (“IV opt” (SEQ ID NO: 22) and “IV optB” (SEQ ID NO: 23)) and 9B8 (“9B8 opt” (SEQ ID NO: 24) and “9B8 optB” (SEQ ID NO: 25)) were generated and cloned into pF4Ag by methods known in the art. HEK293 cells were plated in 96-well plates at 15,000 cells/well and grown overnight at 37° C. The following day, the cells were transiently transfected in 6 well replicates using TRANSIT®-LT1 Transfection Reagent (Mirus Bio) with 100 ng of plasmid DNA encoding the codon optimized versions in pF4Ag and grown overnight at 37° C. HEK293 cells were also transfected with either pGL4.13 (Luc2/SV40) (Paguio et al., “pGL4 Vectors: A New Generation of Luciferase Reporter Vectors” Promega Notes, 89:7-10 (2005)) or pGL4.73 (hRL/SV40) (Id.) to normalize for differences in transfection efficiency. Ten ng/transfection or 10% of the total DNA transfected was used.
The OgLuc variants had higher luminescence compared to Luc2 and hRL.

| Molecule | RLU [1] | fold brighter than QUANTILUM Recombinant Luciferase with BRIGHT-GLO [2] | luminescence ([2]; 0.5 pM purified enzyme, 15 min, 10 μM PBI-3939 or BRIGHT-GLO with 500 μM luciferin) | baseline ([3]; 10 ng DNA) [RLU] | RLU (10 µM FSK) ([3]; 10 ng DNA) | Response ([3]; 10 ng DNA) | baseline ([3]; 100 ng DNA) | RLU (10 µM FSK) ([3]; 100 ng DNA) | Response ([3]; 100 ng DNA) | RLU (20 μM sulphoraphane) [4] | RLU (20 μM tBHQ) [4] | baseline ([4]; 1 μM sulphoraphane) | baseline ([4]; 1 μM tBHQ) | baseline (CRE [5]) | baseline (CRE [6]) | fold-induction ([7]; 30 ng of DNA for transfection) | fold-induction ([7]; 100 ng of DNA for transfection) | induced luminescence higher than Luc2 transcriptional reporter ([7]; FSK induced) | induced luminescence higher than induced Renilla transcriptional reporter ([7]; FSK induced) | fold higher luminescence than hRL (HEK293 cells) |
| --- | --- | --- | --- | --- | --- | --- | --- | --- | --- | --- | --- | --- | --- | --- | --- | --- | --- | --- | --- | --- |
| 9B8 opt: codon optimized version of the 9B8 variant (SEQ ID NO: 24) (protein) MVFTLEDFVGDWRQTAGYNLDQVLEQGGLSSLFQKLGVSVTPIQKIVLSGENGLKIDIHVIIPYEGLSGYQMGQIEKIFKVVYPVDDHHFKVILHYGTLVIDGVTPNMIDYFGRPYEGIAVFDGKKITVTGTLWNGNKIIDERLINPDGSLLFRVTINGVTGWRLCERILA | 23,283,252,000 RLU | approximately 8 fold | 19,200 RLU | 192810 | 12,926,465 RLU | 67 | 3,078,418 RLU | 104,687,723 RLU | 34 | 89,600,000 RLU | 120,000,000 RLU | 15,600,000 RLU | 15,100,000 RLU | 39,700,000 RLU | 9,187,000 RLU | 360 | 109 | approximately 1.5 logs | approximately 2.5 logs | – |
| Luc2: a firefly luciferase (SEQ ID NOs: 28 and 29) (protein, listed as Photinus pyralis) MEDAKNIKKGPAPFYPLEDGTAGEQLHKAMKRYALVPGTIAFTDAHIEVDITYAEYFEMSVRLAEAMKRYGLNTNHRIVVCSENSLQFFMPVLGALFIGVAVAPANDIYNERELLNSMGISQPTVVFVSKKGLQKILNVQKKLPIIQKIIIMDSKTDYQGFQSMYTFVTSHLPPGFNEYDFVPESFDRDKTIALIMNSSGSTGLPKGVALPHRTACVRFSHARDPIFGNQIIPDTAILSVVPFHHGFGMFTTLGYLICGFRVVLMYRFEEELFLRSLQDYKIQSALLVPTLFSFFAKSTLIDKYDLSNLHEIASGGAPLSKEVGEAVAKRFHLPGIRQGYGLTETTSAILITPEGDDKPGAVGKVVPFFEAKVVDLDTGKTLGVNQRGELCVRGPMIMSGYVNNPEATNALIDKDGWLHSGDIAYWDEDEHFFIVDRLKSLIKYKGYQVAPAELESILLQHPNIFDAGVAGLPDDDAGELPAAVVVLEHGKTMTEKEIVDYVASQVTTAKKLRGGVVFVDEVPKGLTGKLDARKIREILIKAKKGGKIAV | – | – | – | – | – | – | – | – | – | – | – | – | – | – | – | – | – | – | – | approximately 14 fold |
